Results on 1 substance are retold here after patent US20080219974A1.

This experiment concerns the target human V158 FcγRIIIa (human) (UniProt P08637). Briefly: not described in this filing.

human V158 FcγRIIIa (human), sequence (P08637 17-208 F176V limits assumed): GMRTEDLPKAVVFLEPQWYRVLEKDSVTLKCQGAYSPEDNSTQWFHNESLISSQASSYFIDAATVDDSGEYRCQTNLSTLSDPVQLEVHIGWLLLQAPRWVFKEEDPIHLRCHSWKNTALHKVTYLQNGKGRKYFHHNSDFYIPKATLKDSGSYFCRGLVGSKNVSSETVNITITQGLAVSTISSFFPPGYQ

One may read the Kd as the constant that tells how readily two partners part at equilibrium. Low values mean a tighter complex, high ones a looser complex. The substance human WT IgG1 (antibody) yielded a Kd of 240 nM.
